Source: article PMC7484176

Target: wild-type FtrA from Brucella abortus 2308 (Brucella abortus 2308)
Test: SEC

## wild-type FtrA from Brucella abortus 2308 (natural protein)
  stoichiometry N: 2
